assay: yeast display, Sf9 membrane polyspecificity reagent, FACS + sequencing; frameworks hold sequencing errors
Method in brief: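 A synthetic nanobody library was expressed on Saccharomyces cerevisiae BJ5465 by galactose induction for 36–48 hours. The library was stained for 1 hour at 4 °C with 10% biotinylated, detergent-solubilized Sf9 membrane reagent and enriched with streptavidin microbeads before FACS. Low and high (top ~1%) gates were set on anti-HA fluorescence for expression and streptavidin fluorescence for reagent binding, and each polyreactivity label reflects the gate of origin.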

Which “polyreactivity (PSR sort gate)” value does the source give for “QVHLVESGGGLVQAGGSLRLSCAASGSTFIYYGMGWYRHAPGKERELVATISSGGSTNYADSVKGRFTISRDNAKNTVYLQMNSLKPEDTAVYYCAVAPYYYGLLWNTFYEYYYWGQGTQVTVSS” here?
Its value is “high polyreactivity”.

Which “polyreactivity (PSR sort gate)” value does the source give for “QVQLVESGGGLVQAGGSLRLSCAATGRIFHRYAMGWYRQAPGKEREFVAAITYSTGTTYYADSVKGRFTISRDNAKNTVYLQMNSLKPEDTAVYYCAKVSRFWHKSWFAYGYDYWGQGTQVTVSS” here?
The value was “low polyreactivity”.

With “QVQLVESGGGLVQAGGSLRVSCAASGFTFYLYAMGWYRQAPGKERELVAAITWSGGRTYYADSVKGRFTISRDNAKNTVYLQMNSLKPEDTAVYNCAAVVRKQLSAPSDYWGQGTQVTVSS” as the sequence, how does the “polyreactivity (PSR sort gate)” value read?
Its value is “high polyreactivity”.

With “QVQLVESGGGLVQAGGSLRLSSAASGRTFPSYDMGWYRQAPGKERELVAAISSSGGSTYYADSVKGRFTISRDNAKNTVYLQMNSLKPEDTAVYYCAAATPSGYYYWGQGTQVTVSS” as the sequence, how does the “polyreactivity (PSR sort gate)” value read?
Its value is “high polyreactivity”.

With “QVQLVESGGGLVQAGGSLRLSCAASGSIITSYTMGWYRQAPGKERELVAAISRSGGSTYYADSVKGRFTISRDNAKNTVYLQMNSLKPEDTAVYYCAARQSKLRRETPNDYWGQGTQVTVSS” as the sequence, how does the “polyreactivity (PSR sort gate)” value read?
The value was “high polyreactivity”.

Which “polyreactivity (PSR sort gate)” value does the source give for “QVQLVESGGGLVQAGGILRLSCAASGRTFVRNTMGWYRQAPGKERELVAVISRSGGSTYYADSVKGRFTISRDNAKNTVYLQMNRLKPEDTAVYYCNADTYSAGDYWGQGSQVTVSS” here?
Its value is “high polyreactivity”.

Which “polyreactivity (PSR sort gate)” value does the source give for “QVQLQESGGGLVQAGGSLRLWCAASRNISGSSDLGWYHQAPGKEREFVASITSGGTTYYADSVKGRFTISRDNAKNTVYLQMNSLKPEDTAVYYCAVGDPADAEFGYWGQGTQVTVSS” here?
Its value is “low polyreactivity”.

With “QFQLVESGGGLVQAGGSLRLSCAASGRTFWNYAMGWYRQAPGKERELVAAISVTGTNTYYADSVKGRFTISRDNAKNTVYLQMNSLKPEDTAVYYCAARGRPGLYYWGQGTQVTVSS” as the sequence, how does the “polyreactivity (PSR sort gate)” value read?
Its value is “high polyreactivity”.

With “QVQLVESGGGLVQAGGSLRLSCAASGSTFTRYAMGWYRQAPGKERELVAGITGRGGSTYYADSVKGRFTISRDNAKNTVYLQMNSLKPEDTAVYYCNKRRRGVTTYDYWGQGTQVTVSS” as the sequence, how does the “polyreactivity (PSR sort gate)” value read?
The value was “high polyreactivity”.

With “QEQLQESGGGLVQAGGSLRLSCAASGYISQSSVMGWYRQAPGKEREFVASISYGATTYYADSVKGRFTISRDNAKNTVYLQTNSRKPEDTAVYYCAVWVKRGFSHRYWGQGTQVTVSS” as the sequence, how does the “polyreactivity (PSR sort gate)” value read?
Its value is “high polyreactivity”.

With “QVQLVESGGGLVQAGGSLRLSCAASGGTFYRYAMGWYRQAPGKERELVAAISRGGSTTYADSVKGRFTISRDNAKNTVYLQMNSLKPEDTAVYYCAARYRCSLPAGLRLLGQGTQVTVSS” as the sequence, how does the “polyreactivity (PSR sort gate)” value read?
Its value is “high polyreactivity”.

With “QVQLVESGGGLVQAGGSLRLSCAASGSIFGVNAMGWYRQAPGKERELVAAISSSTGRTYYADSVKGRFTISRDNAKNTVYLQMNSLKPEDTAVYYCAADFTSYRRGWTYGYWGQGTQVTVSS” as the sequence, how does the “polyreactivity (PSR sort gate)” value read?
The value was “high polyreactivity”.

For “QVQLVESGGGLVQAGGSLRLSCAASGRTFGPNVIGWYRQAPGKERELVAAITSGGTTYYADSVKGRFTISRDNAKNTVYLQMNSLKPEDTAVYYCNARYVYHSSFAGFDYWGQGTQVTVSS”, which “polyreactivity (PSR sort gate)” value is on record?
Its value is “low polyreactivity”.

With “QVQLVESGVGLLQAGGSLSLSCSASGSTLYYAMGWYRQAPGKERELVASITFSTGSTYYADSVKGRFTISRDNAKNTVYLQMNSLKPEDTAVYYCATGVDTYYLTVEHDSWGQGTQVTVSS” as the sequence, how does the “polyreactivity (PSR sort gate)” value read?
The value was “low polyreactivity”.

With “QVQLVESGGGLVQAGGSLRLSCGAAGSIFAPYALGWYRQAPGKERELVAAISWTGGRTYYADSVKGRFTISRDNAKNTVYLQRNSLKPEDTAVYYCAAAYYGTRPYGYWGQGSQVTVSS” as the sequence, how does the “polyreactivity (PSR sort gate)” value read?
Its value is “high polyreactivity”.

For “QVQLVESGGGLVQAGGSLRLSCAASGSIFSAYAMGWYRQAPRKEREFVAAITRRGGNTYYADSVKGRFTISRDNAKNTVYLQMNSLKPEDTAVYYCAAGFYYVYVWLGEYWGQGTQVTVSS”, which “polyreactivity (PSR sort gate)” value is on record?
Its value is “low polyreactivity”.

With “QVQLVESGGGLVQAGGSLRLSCAASGSIFWNYAMGWYRQAPGKERELVASITSGGSTNYADSVKGRFTISRDNEKNTVYLQMNSLKQEDTAVYSCNTDDDSSYTGYYSWGQGTQVTVSS” as the sequence, how does the “polyreactivity (PSR sort gate)” value read?
The value was “low polyreactivity”.

Which “polyreactivity (PSR sort gate)” value does the source give for “QVQLVESGGGLVQAGGSLRLSCAASGSILGRYAMGWYRQAPGKERELVAVITSGGSTNYADSVKGRFTISRDNAKNTVYLQMNSLKPEDTAVYYCAVRPYELHRLADQPGGDDYWGQGTQVTVSS” here?
The value was “low polyreactivity”.

Which “polyreactivity (PSR sort gate)” value does the source give for “QVLLQESGGGLVQAGGSLRLSCAASGTISTDIRMGWYRLAPGKEREFVASIDGCSTTYYADSVKGRFTISRDNAKNTVYLQMNSLKPEDTAMYYCSAREATEFYLFYWGQGTQVTVSS” here?
The value was “low polyreactivity”.

Which “polyreactivity (PSR sort gate)” value does the source give for “QVKLVESGGGLVQAGGSLRLSCAASGSTFPTNAMVCYRQAPGKERELVAGITEGGSSTYYADSVKGRFTISRDNAKNTVYLQMNSLKPEVTAVYYCAADVLWYGPFWVRQDDYWGQGTQVTVSS” here?
The value was “high polyreactivity”.

With “QVQLVESGGGLVQAGGSLRLSCAASGRIFWFNSMGWYRQAPGKERELVAAIDSVGSTYYADSVKGRFTISRDNAKNTVYLQMNSLKPEDTAVYYCAKSTRPVSGVPDGPLYEYWGQGTQVTVSS” as the sequence, how does the “polyreactivity (PSR sort gate)” value read?
The value was “low polyreactivity”.

With “QVQLVESGGGLVQAGGSLRLSCAASGSIFWRNAMGWYRQAPGKERELVAAISRVGSTNYADSVKGRFTISRDNAKNTVYLQMNSLKPQDTAVYYCAVDGGEFSSYGYWGQGTQVTVSS” as the sequence, how does the “polyreactivity (PSR sort gate)” value read?
Its value is “low polyreactivity”.

For “QVQLVESGGGLVQAGGSLRLSCAASGSIFDQYAMGWYRQAPGKERELVAGISSNGGTSTYYADSVKGRFTISRDNAKNTVYLQMNSLKAEDTAVYYCAAQSHYVDQYGYWGQGTQVTVSS”, which “polyreactivity (PSR sort gate)” value is on record?
The value was “low polyreactivity”.

With “QVQLVESGGGLVQAGGSLRLSCAASGSTLYAYAMGWYRQAPGKERELVAAISRSGGSTYYAYSVKGRFTISRDNAKNTVYLQMNSLKPEDTAVYYCNAYYRYFRSIYDSWGQGTQVTVSS” as the sequence, how does the “polyreactivity (PSR sort gate)” value read?
The value was “high polyreactivity”.

With “QVQLVESGGGLFQAGGSLRLSCAASGRTFYPNAMGWYRQAPGKERELVAAISWSVGTTHYADSVKGRFTISRDNAKNSVYLQMLSLKPEDTAVYYCNARWYYGVYDYWGQGTQVTVSS” as the sequence, how does the “polyreactivity (PSR sort gate)” value read?
The value was “low polyreactivity”.

For “QVQLVESGGGLVQAGGSLRLSCAASGSIFYPYAMGWYRQAPGKERELVAAISYSGGSTYYADSVKGSFTISRDNAKNTVYLQMNSLKPEDTAVYYCNRRYWRRPYYKYDYWGQGTQVTVSS”, which “polyreactivity (PSR sort gate)” value is on record?
The value was “high polyreactivity”.

Which “polyreactivity (PSR sort gate)” value does the source give for “QVQLVESGGGLVQAGGSLRLSCAASGRTFGRYAMGWYRQAPGKERELVAAISYSTDSTYYADSVKGRFTISRDNAKNTVYLQMNSLKPEDTAVYYCAADRLRTSGYKTIYDYWGQGTQVTVSS” here?
The value was “low polyreactivity”.

With “QVQLVESGGGLVQAGGSLRLSCAASGSIFHDYAMGWYRQAAGKERELVAVISTSGGSTYYADSVKGRFTISRDNAKNTVYLQMNSLKPEDTAVYYCAADPFDGYSSSEYDYWGQGTQVTVSS” as the sequence, how does the “polyreactivity (PSR sort gate)” value read?
Its value is “low polyreactivity”.

With “QVQLVESGGGLVQAGGSLRLSSAASGRTFWRYGMGWYRQAPGKERELVAAITDSGDSTYYADSVKGRFTISRDNAKNTVYLQMNSLKPEDTAVYYCAASDVVFALNGYYPGEDDYWGQGTQVTVSS” as the sequence, how does the “polyreactivity (PSR sort gate)” value read?
The value was “low polyreactivity”.

With “QVQLVESGGGLVQAGGSLRLSCAASGSIFYYYAMGWSRQAPGKEREFVAAIRESGGSTYYADSVKGSFTISRDNAKNTVYLQMNSLKAEDTAVYYCAVRRPRRNYNYPYDYWGQGTQVTVSS” as the sequence, how does the “polyreactivity (PSR sort gate)” value read?
Its value is “low polyreactivity”.

With “QVQLVESGGGLVQAGGSLRLSCAASGLTFRAYVMGWYRQAPGKERELVAAISVSGGSTYYADSVKGRFTISRDNAKNTVYLQMNSLKPEDTAVYYCAAAAKSWLFDYWGQGTQVTVSS” as the sequence, how does the “polyreactivity (PSR sort gate)” value read?
Its value is “high polyreactivity”.

For “HVQLVESGVGLVQAGGSLRLRCAASGRTLSVYAMGWYRQAPGKERELVAAITIRGGRTYYADSVKGRFTISRDNAKNTVYLQMNSLKPEDTAVYYCAAPPYVKMDYWGQGTQVTVSS”, which “polyreactivity (PSR sort gate)” value is on record?
Its value is “high polyreactivity”.

For “QVQLVESGGGLVQAGGSVRLSCAASGSTFLHYAMGWYRQPPGKERELVAAITDSGGNTYYADSVKCRFTISRDNAKNTVYLQMNSLKPEDTAVYYCAAEYIFHYYDIFDYWGQGTQVTVSS”, which “polyreactivity (PSR sort gate)” value is on record?
The value was “high polyreactivity”.

For “QVQLVESGGGLVQAGGSLRLSCAASGFTFKRYAMGWFRQAPGKERELVSTITSRGGSTYYADSVKGRFTISRDNAKNTVYLQMNSLKPEDTAVYYCVRRYPGLPGWSSYGSYESGYWGQGSQVTVSS”, which “polyreactivity (PSR sort gate)” value is on record?
The value was “high polyreactivity”.

For “QVQLGESRGGLVQAGGSLRLSCAASGTFAYKTIGWYRQAPGKEREWVAAITSSGGSTYYADSVKGRFTISRDNAKNTVYVLMNSLKPEDTAVYYCDKGSTWYYRKYDYWGQGTQVTVSS”, which “polyreactivity (PSR sort gate)” value is on record?
The value was “high polyreactivity”.

Which “polyreactivity (PSR sort gate)” value does the source give for “QVQLVESGGGLVQAGGSLRLSCAASGYIFATYAMGWYRQAPGKERELVAAISWSGGRTYYADSVKGRFTISRDNAKNTVYLQMNSLKPEDTAVYYCNKATSRRVYGYDYWGQGTQVTVSS” here?
Its value is “high polyreactivity”.

Which “polyreactivity (PSR sort gate)” value does the source give for “QVQLVESGGGLVQAGGSLLLSSAASGSIFQPYAMGWYRPAPGKERELVAAISIGDSTNYADSVKGRFTISRDNAKITVYLQMNSLKPEDTAVYYCNTTGEYYDYWGQGTQVTVSS” here?
The value was “low polyreactivity”.

With “QVQLVESGGGLVQAGGSLRLSCAASGRIFRAYVMGWYRQAPGKEREYVAAITRSGGSTYYADSVKGRFTISRDNAKNTVYLQMNSLKPEDTAVYYCAAPVYLYGTVGRGDYWGQGTQVTVSS” as the sequence, how does the “polyreactivity (PSR sort gate)” value read?
The value was “high polyreactivity”.

For “QVQLVESGGGLVQAGGSLRLTCAASGSIFRRNAMGWYRQAPGKERELVAAISWSGGDTYYADSVKGRFTISRDNAKNTVYLQMNSLKPEDTAVYYCAAEYYRPYYGESYDYWGQGTQVTVSS”, which “polyreactivity (PSR sort gate)” value is on record?
Its value is “high polyreactivity”.

Which “polyreactivity (PSR sort gate)” value does the source give for “QVQLVESGGGLVQAGGSLRLSCAASGFIFRGYAMGWYRQAPGKERELVAAITGGGGRTYYADSVKGRFTISRDNAKNTVYLQMNSLKPEDTAVYYCARRFAYSFDYGYWGQGTQVTVSS” here?
The value was “high polyreactivity”.

With “QVQLVESGGGLVQAGGSLRLSCAASGSIFSGYAMGWYRQAPGKERELVAAITGGGSTNYADSVKGRFTISRDNAKNTVYLQMTSLKPEDTAVYYCAAAPVSLPDYGYWGQGTQVTVSS” as the sequence, how does the “polyreactivity (PSR sort gate)” value read?
Its value is “low polyreactivity”.

Which “polyreactivity (PSR sort gate)” value does the source give for “QVQLVESGGGLVQAGGSLRLSCAASGSIYYYVMGWYRQAPGKERELVAAISRSTGRTYYADSVKGRFTISRDNAKNTVYLQMNSLKPEDTAVYYCNKVVPHKPPTMDYWGQGTQVTVSS” here?
Its value is “high polyreactivity”.

With “QVQLVESGGGLVQAGGSLRLSCAASGSTQVYYDMGWYRQAPAKERELVATITGTDSTYYADSVKGRFTISRDNAKNTVYLQMNSLKPEDTADCAADRAASRPDYDYWGEGTQVTVSS” as the sequence, how does the “polyreactivity (PSR sort gate)” value read?
The value was “low polyreactivity”.

— the nanobody polyreactivity screen of Harvey et al. (2022)
